T1: EWSR1/WT1 fusion protein (junction of EWS and WT1) peptide on HLA-A*03 (human)
T1 peptide: SSYGQQSEK

T2: EWSR1/WT1 fusion protein (junction of EWS and WT1) peptide on HLA-A*11 (human)
T2 peptide: SSYGQQSEK

B1: TCR15 (TCR, V domains shown)
Valpha: QKEVEQDPGPLSVPEGAIVSLNCTYSNSAFQYFMWYRQYSRKGPELLMYTYSSGNKEDGRFTAQVDKSSKYISLFIRDSQPSDSATYLCAMGGGSNYKLTFGKGTLLTVNP
Vbeta: DSGVTQTPKHLITATGQRVTLRCSPRSGDLSVYWYQQSLDQGLQFLIQYYNGEERAKGNILERFSAQQFPDLHSELNLSSLELGDSALYFCASSPPGQTNYGYTFGSGTRLTVV
B2: TCR12 (TCR, V domains shown)
Valpha: AQKVTQAQTEISVVEKEDVTLDCVYETRDTTYYLFWYKQPPSGELVFLIRRNSFDEQNEISGRYSWNFQKSTSSFNFTITASQVVDSAVYFCALSEMQGGSEKLVFGKGTKLTVNP
Vbeta: DSGVTQTPKHLITATGQRVTLRCSPRSGDLSVYWYQQSLDQGLQFLIHYYNGEERAKGNILERFSAQQFPDLHSELNLSSLELGDSALYFCASSTSSGSPDTQYFGPGTRLTVL
B3: TCR14 (TCR, V domains shown)
Valpha: GQQLNQSPQSMFIQEGEDVSMNCTSSSIFNTWLWYKQDPGEGPVLLIALYKAGELTSNGRLTAQFGITRKDSFLNISASIPSDVGIYFCAGQGASGTYKYIFGTGTRLKVLA
Vbeta: DAGVIQSPRHEVTEMGQEVTLRCKPISGHNSLFWYRQTMMRGLELLIYFNNNVPIDDSGMPEDRFSAKMPNASFSTLKIQPSEPRDSAVYFCASSPGTSDEFFGPGTRLTVL

How the values were obtained:
[1] = target: T1, EWSR1/WT1 fusion protein (junction of …); assay: cytokine release
[2] = target: T2, EWSR1/WT1 fusion protein (junction of …); assay: cytokine release
[3] = target: T1, EWSR1/WT1 fusion protein (junction of …); assay: multimer staining

Binder	binding result [1]	binding result [2]	binding result [3]
B1	recognises	recognises	
B2			recognises
B3			recognises
